Results as given in patent EP1257175B1.

Tests used:
Experiment in all cases: cell-based or functional assay
[1] = target: SAVINASE, subtilisin derived from Bacillus clausii (previously Bacillus lentus NCIB 10309) (Bacillus clausii (previously Bacillus lentus NCIB 10309)) (UniProt P29600)
[2] = target: Sub.Novo(Y217L), mutant of subtilisin from Bacillus amyloliquefaciens (Bacillus amyloliquefaciens) (UniProt P00782)
[3] = target: Sub.Novo, subtilisin from Bacillus amyloliquefaciens (Bacillus amyloliquefaciens) (UniProt P00782)
[4] = target: protease derived from Acremonium chrysogenum ATCC 48272 (Acremonium chrysogenum ATCC 48272)
[5] = target: protease derived from Aspergillus sp. CBS 102448
[6] = target: protease derived from Bacillus alcalophilus NCIMB 10438 (Bacillus alcalophilus NCIMB 10438)
[7] = target: protease derived from Bacillus sp. NCIMB 40484 (Bacillus sp. NCIMB 40484)
[8] = target: protease derived from Fusarium oxysporum IFO 4471 (Fusarium oxysporum IFO 4471)
[9] = target: protease derived from Paecilomyces lilacinus CBS 102449 (Paecilomyces lilacinus CBS 102449)

Substance: Streptomyces Subtilisin Inhibitor (SSI) (from UniProt P01006 32-144)
- Residual activity (%) [1]: 0%
- Residual activity (%) [2]: 0%
- Residual activity (%) [3]: 0.1%
- Residual activity (%) [4]: 0.1%
- Residual activity (%) [5]: 0.1%
- Residual activity (%) [6]: 0%
- Residual activity (%) [7]: 4.3%
- Residual activity (%) [8]: 0.1%
- Residual activity (%) [9]: 0.1%
